From patent publication US20090022728A1 (RINAT NEUROSCIENCE, published 2009)
Like-named read-outs stand apart in the source and are kept apart here.

Assays:
[1] = molecular target: T1, biotinylated Aβ1-40 peptide (biotinylated (N-biotinylated in Example 7)); experiment: SPR, Fab over Aβ1-40 on SA chip
T1 construct: captured on streptavidin (SA) chip; also called Biotinylated Aβ peptide 1-40; Aβ1-40 on SA chip
Target sequence in this assay (peptide, as listed by the source): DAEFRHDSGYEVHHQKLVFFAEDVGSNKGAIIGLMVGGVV

[2] = molecular target: T1, biotinylated Aβ1-40 peptide; experiment: SPR, Fab over Aβ1-40 on SA chip; KD=koff/kon
[3] = molecular target: T1, biotinylated Aβ1-40 peptide; experiment: SPR, Fab over Aβ1-40 on SA chip; Fab fragment; Aβ1-40 immobilized on SA chip
Protocol: Affinities of 9TL Fab fragment and its variants Fab fragments were determined by Surface Plasmon Resonance (SPR) system (BIAcore 3000™, BIAcore, Inc., Piscaway, N.J.). SA chips (streptavidin) were used according to the supplier's instructions. Biotinylated Aβ peptide 1-40 was diluted into HBS-EP (10 mM HEPES pH 7.4, 150 mM NaCl, 3 mM EDTA, 0.005% P20) and injected over the chip at a concentration of 0.005 mg/mL. Using variable flow time across the individual chip channels, two ranges of antigen density were achieved: 10-200 response units (RU) for detailed kinetic studies and 500-600 RU for concentration studies and screening. […] HBS-EP buffer was used as running buffer for all the BIAcore assays. […] The concentrations of the Fab proteins were determined by ELISA and/or SDS-PAGE electrophoresis using a standard Fab of known concentration (determined by amino acid analysis). […] Equilibrium dissociation constant (KD) values were calculated as koff/kₒₙ.
All amino acid substitutions of the variants shown in Table 3 are described relative to the sequence of 9TL. KD and other kinetic parameters were determined by BIAcore analysis described above with Aβ₁₋₄₀ immobilized on SA chip.

[4] = molecular target: T2, Aβ28-42 peptide; experiment: SPR peptide competition, Aβ1-40 on SA chip
T2 peptide: KGAIIGLMVGGVVIA
Protocol: (§1) To determine the epitope on Aβ polypeptide that is recognized by antibody 9TL, Surface Plasmon Resonance (SPR, Biacore 3000) binding analysis was used. Aβ₁₋₄₀ polypeptide coupled to biotin (Global Peptide Services, CO) was immobilized on a streptavidin-coated chip (SA chip). The binding of Aβ antibodies Fab fragments (at 50 nM) to the immobilized Aβ₁₋₄₀ in the absence or presence of different soluble fragments of the Aβ peptide (at […], from American Peptide Company Inc., CA). Amino acid sequences of Aβ₁₋₄₀, Aβ₁₋₄₂, and Aβ₁₋₄₃ are shown in below in Table 4. The Aβ peptides which displaced binding of antibody 9TL Fab fragment to Aβ₁₋₄₀ were Aβ₂₈₄₀, Aβ₁₋₄₀, Aβ₃₃₋₄₀, and Aβ₁₇₋₄₀, respectively (FIG. 2). Thus, antibody 9TL binds to a C-terminal peptide (33-40) of Aβ₁₋₄₀.

[5] = molecular target: T3, Aβ33-40 peptide; experiment: SPR peptide competition, Aβ1-40 on SA chip
T3 construct: also called C-terminal peptide (33-40) of Aβ1-40
T3 peptide: GLMVGGVV
Protocol: as §1

[6] = molecular target: T4, Aβ1-43 peptide; experiment: SPR peptide competition, Aβ1-40 on SA chip
T4 construct: also called 1-43 (WT)
Protocol: as §1

[7] = molecular target: T5, Aβ28-40 peptide; experiment: SPR peptide competition, Aβ1-40 on SA chip
T5 peptide: KGAIIGLMVGGVV
Protocol: as §1

[8] = molecular target: T6, Aβ17-40 peptide; experiment: SPR peptide competition, Aβ1-40 on SA chip
T6 peptide: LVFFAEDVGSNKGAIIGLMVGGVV
Protocol: as §1

[9] = molecular target: T1, biotinylated Aβ1-40 peptide; experiment: SPR, Fab over Aβ1-40 on SA chip; remark: listed apart in the source
Protocol: Affinities of 9TL Fab fragment and its variants Fab fragments were determined by Surface Plasmon Resonance (SPR) system (BIAcore 3000™, BIAcore, Inc., Piscaway, N.J.). SA chips (streptavidin) were used according to the supplier's instructions. Biotinylated Aβ peptide 1-40 was diluted into HBS-EP (10 mM HEPES pH 7.4, 150 mM NaCl, 3 mM EDTA, 0.005% P20) and injected over the chip at a concentration of 0.005 mg/mL. Using variable flow time across the individual chip channels, two ranges of antigen density were achieved: 10-200 response units (RU) for detailed kinetic studies and 500-600 RU for concentration studies and screening. […] HBS-EP buffer was used as running buffer for all the BIAcore assays. […] The concentrations of the Fab proteins were determined by ELISA and/or SDS-PAGE electrophoresis using a standard Fab of known concentration (determined by amino acid analysis). Kinetic association rates (kₒₙ) and dissociation rates (koff) were obtained simultaneously by fitting the data to a 1:1 Langmuir binding model (Karlsson, R. Roos, H. Fagerstam, L. Petersson, B. (1994). Methods Enzymology 6. 99-110) using the BIAevaluation program. Equilibrium dissociation constant (KD) values were calculated as koff/kₒₙ.

T4 sequence (peptide, as listed by the source): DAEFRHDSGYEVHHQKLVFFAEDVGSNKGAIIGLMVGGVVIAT

koff [1]: 0.000359 s⁻¹
Kd [2]: 1.13 nM
kon [3]: 318000 M⁻¹ s⁻¹
binding result [5]: binds
binding result [7]: binds
binding result [8]: binds
Kd [9]: 1.13 nM
koff [9]: 0.000359 s⁻¹
kon [9]: 318000 M⁻¹ s⁻¹
B1: 9TL Fab fragment (Fab, V domains shown)
VH: QVQLVQSGAEVKKPGASVKVSCKASGYYTEAYYIHWVRQAPGQGLEWMGRIDPATGNTKYAPRLQDRVTMTRDTSTSTVYMELSSLRSEDTAVYYCASLYSLPVYWGQGTTVTVSS
VL: DVVMTQSPLSLPVTLGQPASISCKSSQSLLYSDAKTYLNWFQQRPGQSPRRLIYQISRLDPGVPDRFSGSGSGTDFTLKISRVEAEDVGVYYCLQGTHYPVLFGQGTRLEIKR
notes: Fab from E. coli with human IgG2 CH1 (P01859) and human kappa constant domain (CAA09181)
binding result [4]: no binding (tested: 10 µM (FIG. 2 legend; text prints 10 pM))
binding result [6]: no binding (tested: 10 µM (FIG. 2 legend; text prints 10 pM))
